This is an account of results in US20060240002A1, “Methods of inhibiting angiogenesis-dependent conditions mediated by cryptic epitopes of extracellular matrix components” (priority 2005, published 2006).

Bounds are passed on as bounds.

In test [1] the target is denatured collagen type-IV. Put plainly: cell-based or functional assay.
Test [2] relates to B16F10 tumor cells. The experiment in a line: Differential cDNA array analysis of B16F10 tumor cells treated with peptides (Example X). The following applies: 12 hours, Example X written in present tense. It is filed as cell-based, murine. As for the experimental part:
To evaluate the effect of inhibiting the HUIV26 cryptic collagen epitope using the SLK- and CLK-Peptides, an Affymetrix™-based differential cDNA array analysis is performed using B16F10 tumor cells treated or not treated with SLK- or CLK-peptide. Non-tissue culture treated dishes are coated overnight with 100 μg/ml of denatured collagen IV in PBS. The next morning the plates are washed and incubated in blocking solution (1% BSA in PBS) for approximately 30 minutes. Tumor cells (7×10^6) are resuspended in serum free media and added to each plate in the presence or absence of CLK-Peptide, SLK-Peptide or a control peptide. The cells are allowed to incubate for a total of 12 hours.
Following the 12-hour incubation period, the cells are harvested and the RNA is isolated using both a TRIzol reagent and the Qiagen Rneasy Mini Protocol for RNA Cleanup. After RNA extraction, the amount and quality of RNA is quantified utilizing a spectrophotomer. 5-8 μg of total RNA is utilized to synthesize double-stranded cDNA. The first cDNA strand is obtained using a reaction mixture containing a T7-(dT)24 Primer, 1× First Strand Buffer, 0.1M DTT and 10 mM dNTP mix in addition to the extracted RNA. The tubes are incubated at 42° C. for approximately 1.5 hours. […]

In test [3] the test system is B16F10 tumor cells. Put plainly: Real time quantitative RT-PCR of B16F10 cells treated with peptides (Example X). It is filed as cell-based, murine. The note with it: vs control peptide, Example X written in present tense. As for the experimental part:
Relative expression levels of genes are assessed by both real time quantitative RT-PCR and Western Blot analysis. Tumor cells (B16F10) are allowed to interact with denatured collagen type-IV in the presence or absence of the SLK-peptide, CLK-peptide, or control peptide. Whole cell lysates are prepared from the various cell samples.
Real Time quantitative RT-PCR is carried out essentially as described with some modifications (Livak et al., Method 2001, 25:402-408). Total RNA is isolated using RNeasy miniprep columns (Qiagen, Valencia Calif.) according to the manufacturer's instructions. Total RNA (1 μg) is reverse transcribed using 1× Reverse Transcriptase Buffer, MgCl2 (3 mM), dNTP (2.0 mM), RNAse inhibitor (0.2 U/μl), random hexamer primers (0.5 mM), and MMLV reverse transcriptase (0.3 U/μl) in 20 μl reactions using a 3-step cycle (Promega, Madison, Wis.). Real-time fluorescence detection is carried out using an ABI Prism 7900 Sequence Detection System. Reactions are carried out in microAmp 96 well reaction plates. Primers and probes are designed using Primer 3 version 2 and ENSEMBL software (Promega).

Test [4] relates to B16F10 tumor cells. The experiment in a line: Western blot of B16F10 cells treated with peptides (Example X). It is filed as cell-based, murine. The following applies: B16F10 cells on denatured collagen type-IV; vs no treatment or control peptide; Example X written in present tense. As for the experimental part:
Western blot analyses indicate a corresponding increase in protein levels. Western blotting was performed as previously described, by coating non-tissue culture treated plates with denatured collagen type-IV (10.0 μg/ml). Equal numbers of tumor cells (B16F10) from sub-confluent cultures are harvested, washed and added to the coated plates in the presence or absence of SLK-peptide, CLK-peptide, or control peptide, and allowed to incubate in 1.0% serum-containing medium. Cells are harvested, washed, and lysed in 1.0% Triton X-100 buffer containing 300 mM NaCl, 50 mM Tris (pH 7.0) and 1× protease inhibitor cocktail. Equal amounts (25 μg/lane) of tumor cell lysates are separated by SDS Page and transferred to nitrocellulose membranes. Membranes are probed by incubation with either polyclonal antibodies directed to P21^CIP1 or Actin (Santa Cruz) as described previously (Brooks et al., Cell 1998, 92: 391-400; Petitclerc et al., Cancer Res. 1999, 59: 2724-2730). Western blots are visualized by a chemiluminesence detection system (Amersham Life Sciences).
On the technique in general: Immunoblotting shows a protein as a band on a membrane.

In test [5] the target is αvβ3 integrin (human) (UniProt P06756). Put plainly: cell-based or functional assay.
Test [6] concerns P27^KIP1. The experiment in a line: Western blot of P27^KIP1 in B16F10 melanoma cells on denatured collagen. It is filed as cell-based, murine. The note with it: 24 hours. As for the experimental part:
(§1) To examine the effect of CLK-peptide on the expression of cyclin-dependent […] P27^KIP1, B16F10 melanoma and GL261 glioblastoma cells were resuspended in adhesion buffer in the presence or absence of CLK-peptide or control peptide. Cells were added to culture plates coated with denatured collagen and allowed to incubate for 24 hours. Total cell lysates were prepared and the proteins analyzed by Western Blot analysis.

The test system of test [7] is P27^KIP1. Put plainly: Western blot of P27^KIP1 in GL261 glioblastoma cells on denatured collagen. It is filed as cell-based. The following applies: 24 hours. As for the experimental part:
as §1

The subject of test [8] is P21^CIP1. Put plainly: Western blot of P21^CIP1 in M21 cells. It is filed as cell-based, human. The following applies: 12 hours, 1% serum-containing medium. As for the experimental part: The effect of CLK-peptide on the expression of P21^CIP1 was examined by Western Blot analysis. M21 cells were resuspended in adhesion buffer in the presence or absence of CLK-peptide and allowed to incubate for 12 hours in 1% serum-containing medium. Total cell lysates were prepared and the levels of P21^CIP1 and actin analyzed by Western Blot analysis.

Chain of UniProt P06756 (P06756 31-1048, chain 1 of 2): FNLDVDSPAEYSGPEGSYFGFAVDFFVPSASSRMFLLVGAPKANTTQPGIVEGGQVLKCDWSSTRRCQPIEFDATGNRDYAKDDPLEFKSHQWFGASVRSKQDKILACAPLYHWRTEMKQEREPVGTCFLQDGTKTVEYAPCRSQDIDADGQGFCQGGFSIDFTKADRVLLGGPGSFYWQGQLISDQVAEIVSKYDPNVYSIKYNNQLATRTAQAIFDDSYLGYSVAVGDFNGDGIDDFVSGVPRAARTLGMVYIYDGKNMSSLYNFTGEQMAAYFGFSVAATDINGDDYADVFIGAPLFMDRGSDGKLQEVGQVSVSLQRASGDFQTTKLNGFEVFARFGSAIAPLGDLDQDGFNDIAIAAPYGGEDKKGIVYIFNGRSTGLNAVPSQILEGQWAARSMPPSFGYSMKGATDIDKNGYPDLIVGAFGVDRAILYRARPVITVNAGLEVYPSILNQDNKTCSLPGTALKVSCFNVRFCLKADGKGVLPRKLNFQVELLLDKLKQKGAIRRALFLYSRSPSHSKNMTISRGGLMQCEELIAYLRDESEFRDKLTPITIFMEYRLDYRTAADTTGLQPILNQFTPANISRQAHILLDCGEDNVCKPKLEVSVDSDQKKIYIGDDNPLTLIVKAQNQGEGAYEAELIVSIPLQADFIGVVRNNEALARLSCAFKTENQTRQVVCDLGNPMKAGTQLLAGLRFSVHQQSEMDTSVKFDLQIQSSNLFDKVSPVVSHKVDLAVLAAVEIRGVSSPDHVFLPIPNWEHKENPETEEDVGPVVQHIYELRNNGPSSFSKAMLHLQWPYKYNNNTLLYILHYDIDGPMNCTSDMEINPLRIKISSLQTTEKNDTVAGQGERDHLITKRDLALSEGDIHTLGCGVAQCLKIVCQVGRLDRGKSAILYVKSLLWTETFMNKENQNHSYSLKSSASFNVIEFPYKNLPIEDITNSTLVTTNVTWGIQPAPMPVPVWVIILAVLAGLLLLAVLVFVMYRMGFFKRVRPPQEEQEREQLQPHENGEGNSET
Chain of UniProt P06756 (P05106 27-788, chain 2 of 2, further chain): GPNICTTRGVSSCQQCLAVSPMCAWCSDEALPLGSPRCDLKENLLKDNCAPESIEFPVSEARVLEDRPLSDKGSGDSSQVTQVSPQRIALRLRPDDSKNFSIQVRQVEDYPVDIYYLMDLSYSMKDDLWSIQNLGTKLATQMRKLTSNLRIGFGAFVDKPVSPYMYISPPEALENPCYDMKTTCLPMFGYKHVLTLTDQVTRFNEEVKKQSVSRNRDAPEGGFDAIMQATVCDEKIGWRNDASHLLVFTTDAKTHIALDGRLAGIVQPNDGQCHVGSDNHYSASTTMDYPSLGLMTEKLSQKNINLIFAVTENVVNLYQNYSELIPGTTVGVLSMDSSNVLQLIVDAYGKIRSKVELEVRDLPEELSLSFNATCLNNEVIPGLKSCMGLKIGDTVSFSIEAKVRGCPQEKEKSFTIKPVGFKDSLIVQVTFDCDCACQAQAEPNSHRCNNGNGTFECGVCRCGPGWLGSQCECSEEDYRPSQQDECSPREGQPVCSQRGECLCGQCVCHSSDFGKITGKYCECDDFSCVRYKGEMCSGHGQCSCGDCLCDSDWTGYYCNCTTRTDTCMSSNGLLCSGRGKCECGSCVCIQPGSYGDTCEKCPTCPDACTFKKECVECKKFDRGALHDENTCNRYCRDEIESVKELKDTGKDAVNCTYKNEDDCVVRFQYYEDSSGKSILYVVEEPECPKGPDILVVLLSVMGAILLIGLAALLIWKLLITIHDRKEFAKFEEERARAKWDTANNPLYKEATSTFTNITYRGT

As to Mab HUIV26 (antibody), in test [1], the TSP-1 mRNA levels in HUVECs (real-time PCR) came to 6 fold, the adhesion of B16F10 cells to denatured collagen type-IV turned out to be 50 % inhibition, the expression of P21^CIP1 protein in B16F10 cells (Western blot) is 2 fold and the migration of B16F10 tumor cells on denatured collagen type-IV is 50 % inhibition. In test [1], the relative level of P21^CIP1 mRNA in B16F10 cells (real time RT-PCR) was determined as 2.3 fold, the relative levels of IGFBP-4 RNA in M21 cells (RT-PCR) was 115 fold, the relative levels of IGFBP-4 mRNA in HUVECs (RT-PCR) is > 10 fold and the relative levels of Id-1 in M21 cells (real-time PCR) (fold decrease) was found to be 2. The relative levels of TSP-1 RNA in M21 cells (real-time PCR) in test [1] was determined as 7 fold.
As to “NH2—S-L-K-Q-N-G-G-N—F—S-L-C—COOH (H-SLKQNGGNFSLC-OH) [SLK-peptide]”, the “expression of certain genes (cDNA array)” value in test [2] is “significant increase”. For the same substance, the “relative levels of certain RNAs (RT-PCR)” value in test [3] is “significant increase in the relative levels of certain RNAs and significant decrease in other RNAs”. In addition, the “expression of certain proteins (Western blot)” value in test [4] is “significant increase in expression of certain proteins and a significant decrease in expression of other proteins”.
Mab LM609 (antibody) yielded a relative level of TSP-1 in M21 cells on denatured collagen type-IV (real-time PCR) in test [5] of 8 fold.
As for Mab HUI77 (antibody), in test [1], the relative level of P21^CIP1 mRNA in HUVECs (real time RT-PCR) amounted to 10 fold and the relative level of P27^KIP1 mRNA in HUVECs (real time RT-PCR) is > 5 fold.
“NH2—C-L-K-Q-N-G-G-N—F—S-L-G-COOH (H-CLKQNGGNFSLG-OH) [CLK-peptide]”: the “expression of P27^KIP1 (Western blot)” value in test [6] and in test [7] was “significant upregulation” each time. Moreover, the “expression of P21^CIP1 (Western blot)” value in test [8] is reported as “significant upregulation”. Also, in test [2], the “expression of certain genes (cDNA array)” value is “significant increase”. The “relative levels of certain RNAs (RT-PCR)” value in test [3] was “significant increase in the relative levels of certain RNAs and significant decrease in other RNAs”. The “expression of certain proteins (Western blot)” value in test [4] is “significant increase in expression of certain proteins and a significant decrease in expression of other proteins”.
